Measurements: the Human Domainome abundance scans (Beltran et al. 2025)
± gives the uncertainty stated by the source.

B1: Myocardin, residues 363 to 406; numbered along this chain, Q8IZQ8 (parent)
chain: KPGPLPPNLDDLKVSELRQQLRIRGLPVSGTKTALMDRLRPFQD

Variants of: B1
Assay: abundance fitness (aPCA) (normalised: wild type 0, dead -1); higher = more abundant; growth selection in yeast, the domain comes from the species named
Conditions: Homo sapiens

Row | Variant | abundance fitness
1 | R38C | -0.929 ± 0.18
2 | D10Y | 0.026 ± 0.32
3 | R22G | -0.531 ± 0.07
4 | T31S | 0.103 ± 0.1
5 | M36A | -0.255 ± 0.066
6 | N8A | -0.187 ± 0.081
7 | L35D | -0.459 ± 0.15
8 | R22I | -0.384 ± 0.17
9 | K32R | -0.012 ± 0.054
10 | R22S | -0.21 ± 0.11
11 | P41F | -0.27 ± 0.12
12 | M36C | -0.454 ± 0.16
13 | P7W | -0.414 ± 0.11
14 | P2F | 0.328 ± 0.24
15 | D44F | -0.325 ± 0.25
16 | L17A | -0.583 ± 0.081
17 | G3V | 0.102 ± 0.088
18 | E16A | -0.295 ± 0.11
19 | D11P | -0.714 ± 0.11
20 | R40D | -0.614 ± 0.14
21 | L39H | -0.611 ± 0.17
22 | N8Q | -0.154 ± 0.12
23 | R38K | -0.39 ± 0.094
24 | P41R | -0.256 ± 0.058

Row | Variant | abundance fitness
25 | R22H | -0.624 ± 0.39
26 | G30T | -0.901 ± 0.3
27 | P4L | 0.102 ± 0.076
28 | P27M | -0.324 ± 0.13
29 | P2E | 0.401 ± 0.094
30 | P2H | -0.093 ± 0.11
31 | D37P | -0.966 ± 0.15
32 | R38P | -0.219 ± 0.13
33 | V28Q | 0.027 ± 0.069
34 | T31R | -0.319 ± 0.085
35 | R24Q | -0.73 ± 0.2
36 | S29V | -0.097 ± 0.079
37 | E16W | -0.613 ± 0.15
38 | L35R | -0.799 ± 0.077
39 | L35H | -0.943 ± 0.25
40 | P41D | -0.325 ± 0.27
41 | L9H | -0.542 ± 0.15
42 | G25T | -0.56 ± 0.1
43 | N8G | -0.623 ± 0.064
44 | D11R | -0.135 ± 0.057
45 | K32G | -0.856 ± 0.092
46 | P2Q | 0.374 ± 0.073
47 | V14K | -0.157 ± 0.1
48 | F42S | 0.03 ± 0.092

Row | Variant | abundance fitness
49 | L21W | -1.02 ± 0.13
50 | P6L | -0.26 ± 0.091
51 | K1A | -0.671 ± 0.11
52 | A34P | -0.825 ± 0.22
53 | D37E | 0.246 ± 0.076
54 | R18Y | -0.744 ± 0.31
55 | P4Y | 0.368 ± 0.077
56 | I23T | -0.261 ± 0.18
57 | L21C | -0.271 ± 0.17
58 | R38L | -0.671 ± 0.088
59 | F42P | -0.02 ± 0.086
60 | L26Q | -0.503 ± 0.14
61 | R24D | -0.536 ± 0.16
62 | L21P | -0.523 ± 0.12
63 | Q19P | -0.761 ± 0.13
64 | R24P | -0.456 ± 0.16
65 | V28I | 0.217 ± 0.17
66 | L12Y | 0.298 ± 0.16
67 | Q43C | -0.005 ± 0.13
68 | G30C | -0.709 ± 0.17
69 | P2S | 0.184 ± 0.07
70 | L35K | -0.469 ± 0.093
71 | R40Q | -0.042 ± 0.2
72 | L5D | -0.245 ± 0.12

Row | Variant | abundance fitness
73 | R18T | -0.388 ± 0.1
74 | L35C | -0.184 ± 0.2
75 | A34M | -0.262 ± 0.18
76 | T33C | -0.072 ± 0.1
77 | L9R | -0.524 ± 0.058
78 | Q20D | -0.608 ± 0.1
79 | V28T | 0.153 ± 0.088
80 | L17N | -1 ± 0.35
81 | P4G | -0.229 ± 0.067
82 | L12P | -0.899 ± 0.21
83 | S15T | 0.071 ± 0.24
84 | Q20F | -0.093 ± 0.16
85 | L21D | -0.361 ± 0.11
86 | D11V | 0 ± 0.087
87 | S29R | -0.362 ± 0.068
88 | G25P | -0.591 ± 0.12
89 | Q19G | -0.368 ± 0.066
90 | D44C | -0.297 ± 0.21
91 | R22M | -0.619 ± 0.44
92 | M36L | -0.449 ± 0.098
93 | Q43H | -0.376 ± 0.17
94 | P4D | 0.276 ± 0.08
95 | G3D | -0.228 ± 0.12
96 | K32I | -0.488 ± 0.26

Row | Variant | abundance fitness
97 | P6Q | -0.267 ± 0.073
98 | S15I | -0.23 ± 0.11
99 | D10E | 0.287 ± 0.071
100 | M36V | -0.183 ± 0.075
101 | P6F | -0.356 ± 0.42
102 | R24N | -0.695 ± 0.15
103 | Q20P | -0.785 ± 0.16
104 | D37A | -0.265 ± 0.062
105 | D37K | -0.245 ± 0.11
106 | S29Y | -0.095 ± 0.29
107 | G25A | -0.39 ± 0.084
108 | Q20C | -0.395 ± 0.11
109 | L21N | -0.244 ± 0.26
110 | P27L | -0.657 ± 0.099
111 | Q20L | 0.073 ± 0.075
112 | R18H | -0.321 ± 0.24
113 | S15N | -0.288 ± 0.23
114 | P27T | -0.39 ± 0.17
115 | S15G | -0.122 ± 0.056
116 | P6G | -0.153 ± 0.057
117 | V14L | -0.16 ± 0.077
118 | L21V | -0.432 ± 0.1
119 | R40C | -0.499 ± 0.28
120 | I23R | -0.211 ± 0.065

Row | Variant | abundance fitness
121 | G25H | 0.308 ± 0.16
122 | L39T | -0.625 ± 0.14
123 | E16L | -0.826 ± 0.12
124 | K1C | -0.286 ± 0.17
125 | P7S | -0.009 ± 0.087
126 | F42V | -0.211 ± 0.074
127 | S29C | -0.191 ± 0.11
128 | L12F | 0.053 ± 0.25
129 | Q43R | -0.232 ± 0.059
130 | E16Y | -0.323 ± 0.17
131 | R40A | 0.092 ± 0.064
132 | L39D | -0.283 ± 0.16
133 | G3S | -0.077 ± 0.088
134 | L5M | -0.139 ± 0.15
135 | K32F | -0.642 ± 0.15
136 | Q20V | -0.57 ± 0.08
137 | K1V | -0.643 ± 0.1
138 | A34W | -1.14 ± 0.28
139 | G3C | -0.792 ± 0.23
140 | K32Y | -0.593 ± 0.31
141 | D37S | -0.892 ± 0.11
142 | R38F | -0.907 ± 0.18
143 | L35W | -0.561 ± 0.11
144 | R22N | -0.371 ± 0.11

Row | Variant | abundance fitness
145 | L12K | -0.284 ± 0.35
146 | R40G | -0.294 ± 0.076
147 | K1W | -0.98 ± 0.18
148 | D37Y | -0.271 ± 0.22
149 | P27A | -0.376 ± 0.093
150 | R18A | -0.366 ± 0.074
151 | G3H | 0.059 ± 0.12
152 | T33R | -0.055 ± 0.059
153 | L17M | -0.265 ± 0.076
154 | V14D | -0.702 ± 0.33
155 | L17W | -0.798 ± 0.099
156 | L5G | -0.283 ± 0.059
157 | L9C | -0.371 ± 0.19
158 | R18V | -0.312 ± 0.076
159 | P4R | -0.059 ± 0.08
160 | Q20I | 0.05 ± 0.25
161 | L26V | -0.732 ± 0.12
162 | L9D | -0.873 ± 0.15
163 | R24F | -0.819 ± 0.19
164 | Q19M | -0.206 ± 0.18
165 | L12G | -0.638 ± 0.069
166 | G30L | -0.879 ± 0.12
167 | M36E | -0.463 ± 0.12
